Results: article PMC3078593, “Multifunctional transcription factor TFII-I is an activator of BRCA1 function” (British Journal of Cancer, 2011)

Molecular target: GST-BRCT
Assay: cell-based or functional assay

B1: GST-tagged TFII-I (wild type) (natural protein, UniProt P78347-2 1-957, looked up)
chain: MAQVAMSTLPVEDEESSESRMVVTFLMSALESMCKELAKSKAEVACIAVYETDVFVVGTERGRAFVNTRKDFQKDFVKYCVEEEEKAAEMHKMKSTTQANRMSVDAVEIETLRKTVEDYFCFCYGKALGKSTVVPVPYEKMLRDQSAVVVQGLPEGVAFKHPENYDLATLKWILENKAGISFIIKRPFLEPKKHVGGRVMVTDADRSILSPGGSCGPIKVKTEPTEDSGISLEMAAVTVKEESEDPDYYQYNIQGSHHSSEGNEGTEMEVPAEDDDYSPPSKRPKANELPQPPVPEPANAGKRKVREFNFEKWNARITDLRKQVEELFERKYAQAIKAKGPVTIPYPLFQSHVEDLYVEGLPEGIPFRRPSTYGIPRLERILLAKERIRFVIKKHELLNSTREDLQLDKPASGVKEEWYARITKLRKMVDQLFCKKFAEALGSTEAKAVPYQKFEAHPNDLYVEGLPENIPFRSPSWYGIPRLEKIIQVGNRIKFVIKRPELLTHSTTEVTQPRTNTPVKEDWNVRITKLRKQVEEIFNLKFAQALGLTEAVKVPYPVFESNPEFLYVEGLPEGIPFRSPTWFGIPRLERIVRGSNKIKFVVKKPELVISYLPPGMASKINTKALQSPKRPRSPGSNSKVPEIEVTVEGPNNNNPQTSAVRTPTQTNGSNVPFKPRGREFSFEAWNAKITDLKQKVENLFNEKCGEALGLKQAVKVPFALFESFPEDFYVEGLPEGVPFRRPSTFGIPRLEKILRNKAKIKFIIKKPEMFETAIKESTSSKSPPRKINSSPNVNTTASGVEDLNIIQVTIPDDDNERLSKVEKARQLREQVNDLFSRKFGEAIGMGFPVKVPYRKITINPGCVVVDGMPPGVSFKAPSYLEISSMRRILDSAEFIKFTVIRPFPGLVINNQLVDQSESEGPVIQESAEPSQLEVPATEEIKETDGSSQIKQEPDPTW
  luciferase activity of 17M8-AdMLP-luc driven by GAL4-BRCT (GAL-BRCT) in COS7 cells, with TFII-I expressed: ≤ 2 fold
